In PMC4484809, “Formation of a Trimeric Xpo1-Ran[GTP]-Ded1 Exportin Complex Modulates ATPase and Helicase Activities of Ded1”:

What was measured:
Xpo1;Ran[GTP] Q71L = Xpo1;Ran[GTP] Q71L (Saccharomyces cerevisiae;Saccharomyces …, UniProt P30822;P32835 1-1071;1-219, |Q71L); assay: EMSA; no Ded1; no significant supershift; EMSA: 50 mM Tris pH 7.8, 60 mM NaCl, 2 mM MgCl2, 0.1 mg/mL BSA, 5% glycerol, 1 U/uL RNasin Plus, 0.01% NP-40, 1 mM DTT; 900 nM Ded1, 10 nM RNA, 20 min room temp
Ded1 wild type = Ded1 wild type (Saccharomyces cerevisiae, UniProt P06634 1-604); assay: EMSA; 3 mM AMP-PNP; challenged with unlabeled 41mer RNA; EMSA: 50 mM Tris pH 7.8, 60 mM NaCl, 2 mM MgCl2, 0.1 mg/mL BSA, 5% glycerol, 1 U/uL RNasin Plus, 0.01% NP-40, 1 mM DTT; 900 nM Ded1, 10 nM RNA, 20 min room temperature, then 41mer competitor RNA (27 uM solution) 1 min before 7% native PAGE at 4 C; conditions: protein: recombinant; tags: His-tag removed with preScission protease; N-terminal GP from vector; single-stranded
Ded1 sNES = Ded1 sNES (Saccharomyces cerevisiae, UniProt P06634 =D+1-604, A2D;E6K;Q7K;V8F;Q9G;N10T;internal_change); assay: EMSA; 3 mM AMP-PNP; bound to the same extent as wild-type Ded1; EMSA: 50 mM Tris pH 7.8, 60 mM NaCl, 2 mM MgCl2, 0.1 mg/mL BSA, 5% glycerol, 1 U/uL RNasin Plus, 0.01% NP-40, 1 mM DTT; 900 nM Ded1, 10 nM RNA, 20 min room temperature, then 41mer competitor RNA (27 uM solution) 1 min before 7% native PAGE at 4 C; conditions: protein: recombinant; tags: His-tag removed with preScission protease; N-terminal GP from vector; single-stranded

CGAAUUCAAAACAAAACAAAACUAG (ssRNA) [25mer FAM-labeled ssRNA]
binding result (Xpo1;Ran[GTP] Q71L): no binding | binding result (Ded1 wild type): binds | binding result (Ded1 sNES): binds
